1 molecule from patent US20200040070A1 (CHEMOMAB, published 2020) can be followed below.

For one assay, the target named is MCP3 (CCL7) (UniProt P80098 24-99). Put plainly: SPR (Biacore T200), HCM101 immobilized on CM-1 chip, chemokine in solution; MCP3 (CCL7). The protocol: (§1) The affinity constant of HCM101 was evaluated using Biacore T200. This method uses Surface Plasmon Resonance (SPR) electro-optical phenomenon to measure the binding constants and on/off rates between binding partners. HCM101 was immobilized on a surface of a CM-1 chip, and a solution of eotaxin 1 (CCL11)/MCP3 (CCL7) was passed over the surface. The changes in SPR angle were measured and enabled to determine the KD (equilibrium dissociation constant).
MCP3 (CCL7), sequence (P80098 24-99 limits assumed): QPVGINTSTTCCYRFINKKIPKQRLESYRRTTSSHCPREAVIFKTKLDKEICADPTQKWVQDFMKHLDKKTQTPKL
(§2) Biacore, an SPR based technology was used in order to examine the binding affinity of HCM101, generated by CHO cells, to other, non-CCL24 chemokines.
In general terms: SPR reads the build-up and loss of mass on a sensor chip optically.

In the next assay the target is T1, Eotaxin 1 (CCL11) (human, UniProt P51671 24-97).
T1 construct: also called human CCL11
T1 sequence (P51671 24-97 limits assumed): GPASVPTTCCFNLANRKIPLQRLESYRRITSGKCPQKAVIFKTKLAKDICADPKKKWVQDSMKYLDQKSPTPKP
Put plainly: SPR (Biacore T200), HCM101 immobilized on CM-1 chip, chemokine in solution; Eotaxin 1 (CCL11). How it is done:
as §1, §2

B1: fully humanized anti CCL24 antibody HCM101 (antibody, V domains shown)
VH: QIQLVQSGPELKKPGASVKVSCRASGYPFTNSGMNWVKQAPGKGLKWMGWINTYNGEPTYTDDFKGRFAFSLETSASTAYLQINNLRNEDTATYFCASHSYGSSYAMDNWGQGTSVTVSS
VL: DIVLTQSPDSLAVSLGERATINCKASQSVDYDGDSYMNWYQQKPGQPPKLLIYVASNLKSGIPARFSGSGSGTDFTLTISSLQPEDFATYYCQQSNEEPWTFGGGTKVEIK
notes: also called humanized version of CM101
For B1, the values for the Kd in the assay with MCP3 (CCL7) and with Eotaxin 1 (CCL11) were 130 nM and 30 nM, respectively.

The term Kd denotes a measure of binding affinity in units of concentration. Low values mean higher affinity, high ones lower affinity.
